Measured values taken from patent publication EP2974737A1 (Ablynx N.V., dated 2016).

Assays:
Assay in all cases: SPR, interference factor immobilized; % of Fig. 9 reference
[1] = target: T1, purified interference factor(s) from Donor A (human)
T1 construct: also called interference in serum from Donor A

[2] = target: T2, purified interference factor(s) from Donor B (human)
T2 construct: the text names the donors 8, 19 and 30; also called interference in serum from Donor B

[3] = target: T3, purified interference factor(s) from Donor C (human)
T3 construct: the text names the donors 8, 19 and 30; also called interference in serum from Donor C

| Binder | interference binding, % of Reference Sequence [1] | interference binding, % of Reference Sequence [2] | interference binding, % of Reference Sequence [3] |
| --- | --- | --- | --- |
| SEQ ID NO: 43 (VHH) DVQLVESGGGLVQPGGSLRLSCAASGFILDYYAIGWFRQAPGKEREGVLCIDASDDITYYADSVKGRFTISRDNSKNTVYLQMNSLRPEDTAVYYCATPIGLSSSCLLEYDYDYWGQGTLVTVSSGGGGSGGGSEVQLLESGGGLVQPGGSLRLSCAASGFTFRSFGMSWVRQAPGKGPEWVSSISGSGSDTLYADSVKGRFTISRDNSKNTLYLQMNSLRPEDTAVYYCTIGGSLSRSSQGTLVTVSSA | 3% | 20% |  |
| SEQ ID NO: 73 (VHH) VHH: EVQLVESGGGLVQPGGSLRLSCAASRSIGRLDRMGWYRHRPGEPRELVATITGGSSINYGDSVKGRFTISIDNSKNTVYLQMNSLRPEDTAVYYCNFNKYVTSRDTWGQGTLVTVGG | 6% | 8% | 9% |
| SEQ ID NO: 70 (VHH) VHH: EVQLVESGGGLVQPGGSLRLSCAASRSIGRLDRMGWYRHRPGEPRELVATITGGSSINYGDSVKGRFTISIDNSKNTVYLQMNSLRPEDTAVYYCNFNKYVTSRDTWGQGTLVQVSS | 90% | 105% | 98% |
| SEQ ID NO: 80 (VHH) VHH: EVQLVESGGGLVQPGGSLRLSCAASRSIGRLDRMGWYRHRPGEPRELVATITGGSSINYGDSVKGRFTISIDNSKNTVYLQMNSLRPEDTAVYYCNFNKYVTSRDTWGQGTLVQVGG | 65% | 5% | 58% |
| SEQ ID NO: 71 (VHH) VHH: EVQLVESGGGLVQPGGSLRLSCAASRSIGRLDRMGWYRHRPGEPRELVATITGGSSINYGDSVKGRFTISIDNSKNTVYLQMNSLRPEDTAVYYCNFNKYVTSRDTWGQGTLVTVSG | 88% | 105% | 87% |
| SEQ ID NO: 78 (VHH) VHH: EVQLVESGGGLVRPGGSLRLSCAASRSIGRLDRMGWYRHRPGEPRELVATITGGSSINYGDSVKGRFTISIDNSKNTVYLQMNSLRPEDTAVYYCNFNKYVTSRDTWGQGTLVTVSS | 96% | 96% | 100% |
| SEQ ID NO: 79 (VHH) VHH: EVQLVESGGGLVQPGGSLRLSCAASRSIGRLDRMGWYRHRPGEPRELVATITGGSSINYGDSVKGRFTISIDNSKNTVYLQMNSLRPEDTAVYYCNFNKYVTSRDTWGQGTLVTVSS | 1% | 17% | 13% |
| SEQ ID NO: 72 (VHH) VHH: EVQLVESGGGLVQPGGSLRLSCAASRSIGRLDRMGWYRHRPGEPRELVATITGGSSINYGDSVKGRFTISIDNSKNTVYLQMNSLRPEDTAVYYCNFNKYVTSRDTWGQGTLVTVGG | 70% | 47% | 56% |
| SEQ ID NO: 82 (VHH) VHH: EVQLVESGGGLVQPGGSLRLSCAASRSIGRLDRMGWYRHRPGEPRELVATITGGSSINYGDSVKGRFTISIDNSKNTVYLQMNSLRAEDTAVYYCNFNKYVTSRDTWGQGTLVTVSS | 96% | 80% | 100% |
| SEQ ID NO: 84 (VHH) VHH: EVQLVESGGGLVQPGGSLRLSCAASRSIGRLDRMGWYRHRPGEPRELVATITGGSSINYGDSVKGRFTISIDNSKNTVYLQMNSLRPEDTAVYYCNFNKYVTSRDTWGQGTLVTVGS | 84% | 50% | 83% |
| SEQ ID NO: 83 (VHH) VHH: EVQLVESGGGLVQPGGSLRLSCAASRSIGRLDRMGWYRHRPGEPRELVATITGGSSINYGDSVKGRFTISIDNSKNTVYLQMNSLRPEDAAVYYCNFNKYVTSRDTWGQGTLVTVSS | 56% | 73% | 61% |
| SEQ ID NO: 75 (VHH) VHH: EVQLVESGGGLVQPGGSLRLSCAASRSIGRLDRMGWYRHRPGEPRELVATITGGSSINYGDSVKGRFTISIDNSKNTVYLQMNSLRPEDTAVYYCNFNKYVTSRDTWGQGTLVTVSS | 1% | 11% | 16% |
| SEQ ID NO: 77 (VHH) VHH: EVQLVESGGGLVQPGGSLRLSCAASRSIGRLDRMGWYRHRPGEPRELVATITGGSSINYGDSVKGRFTISIDNSKNTVYLQMNSLRPEDTAVYYCNFNKYVTSRDTWGQGTLVTVSS | 2% | 12% | 13% |
| SEQ ID NO: 81 (VHH) VHH: EVQLVESGGGVVQPGGSLRLSCAASRSIGRLDRMGWYRHRPGEPRELVATITGGSSINYGDSVKGRFTISIDNSKNTVYLQMNSLRPEDTAVYYCNFNKYVTSRDTWGQGTLVTVSS | 94% | 50% | 89% |
| SEQ ID NO: 68 (VHH) VHH: EVQLVESGGGLVQAGGSLRLSCAASRSIGRLDRMGWYRHRPGEPRELVATITGGSSINYGDSVKGRFTISIDNSKNTVYLQMNSLRPEDTAVYYCNFNKYVTSRDTWGQGTQVTVSS | 38% | 115% | 49% |
| SEQ ID NO: 38 (VHH) EVQLVESGGGLVQPGGSLRLSCAASGFTFSSYAMSWVRQAPGKGLEWVSGIKSSGDSTRYAGSVKGRFTISRDNAKNTLYLQMNSLRPEDTAVYYCAKSRVSRTGLYTYDNRGQGTLVTVSSGGGGSGGGGSGGGGSGGGGSEVQLVESGGGLVQPGGSLRLSCAASGRTFNNYAMGWFRQAPGKEREFVAAITRSGVRSGVSAIYGDSVKDRFTISRDNAKNTLYLQMNSLRPEDTAVYYCAASAIGSGALRRFEYDYSGQGTLVTVSSA | 9% | 25% | 7% |

More lines, now with the values ahead:

| interference binding, % of Reference Sequence [1] | interference binding, % of Reference Sequence [2] | interference binding, % of Reference Sequence [3] | Binder |
| --- | --- | --- | --- |
| 1% |  |  | SEQ ID NO: 47 (VHH) VHH: EVQLVESGGGLVQPGGSLRLSCAASGSVFKINVMAWYRQAPGKGRELVAGIISGGSTSYADSVKGRFTISRDNAKNTLYLQMNSLRPEDTAVYYCAFITTESDYDLGRRYWGQGTLVTVSS |
| 73% | 121% | 64% | SEQ ID NO: 65 (VHH) VHH: EVQLVESGGGLVQAGGSLRLSCAASRSIGRLDRMGWYRHRPGEPRELVATITGGSSINYGDSVKGRFTISIDNSKNTVYLQMNSLRPEDTAVYYCNFNKYVTSRDTWGQGTLVTVSS |
| 102% | 117% | 96% | SEQ ID NO: 67 (VHH) VHH: EVQLVESGGGLVQPGGSLRLSCAASRSIGRLDRMGWYRHRPGEPRELVATITGGSSINYGDSVKGRFTISIDNSKNTVYLQMNSLKPEDTAVYYCNFNKYVTSRDTWGQGTLVTVSS |
| 80% | 120% | 84% | SEQ ID NO: 69 (VHH) VHH: EVQLVESGGGLVQPGGSLRLSCAASRSIGRLDRMGWYRHRPGEPRELVATITGGSSINYGDSVKGRFTISIDNSKNTVYLQMNSLRPEDTAVYYCNFNKYVTSRDTWGQGTQVTVSS |
| 81% | 29% | 84% | SEQ ID NO: 66 (VHH) VHH: EVQLVESGGGSVQPGGSLRLSCAASRSIGRLDRMGWYRHRPGEPRELVATITGGSSINYGDSVKGRFTISIDNSKNTVYLQMNSLRPEDTAVYYCNFNKYVTSRDTWGQGTLVTVSS |
| 2% | 17% | 20% | SEQ ID NO: 76 (VHH) VHH: EVQLVESGGGLVQPGGSLRLSCAASRSIGRLDRMGWYRHRPGEPRELVATITGGSSINYGDSVKGRFTISIDNSKNTVYLQMNSLRPEDTAVYYCNFNKYVTSRDTWGQGTLVTVSS |
| 4% | 41% | 33% | SEQ ID NO: 74 (VHH) VHH: EVQLVESGGGLVQPGGSLRLSCAASRSIGRLDRMGWYRHRPGEPRELVATITGGSSINYGDSVKGRFTISIDNSKNTVYLQMNSLRPEDTAVYYCNFNKYVTSRDTWGQGTLVTVSS |
| 1% | 4% |  | SEQ ID NO: 42 (VHH) EVQLVESGGGLVQPGGSLRLSCAASGRTFSYNPMGWFRQAPGKGRELVAAISRTGGSTYYPDSVEGRFTISRDNAKRMVYLQMNSLRAEDTAVYYCAAAGVRAEDGRVRTLPSEYTFWGQGTQVTVSSAAAEVQLVESGGGLVQPGGSLRLSCAASGRTFSYNPMGWFRQAPGKGRELVAAISRTGGSTYYPDSVEGRFTISRDNAKRMVYLQMNSLRAEDTAVYYCAAAGVRAEDGRVRTLPSEYTFWGQGTQVTVSSA |
